Key:
[1] = target: Halo-FtsZ^D216A (Caulobacter crescentus); test: single molecule tracking in live cells
[2] = target: Halo-FtsZ (FtsZ fused with HaloTag) (Caulobacter crescentus); test: single molecule tracking in live cells

Row | Substance | monomer lifetime [1] [s] | monomer lifetime [2] [s]
1 | Halo-FtsZ^D216A (natural protein) | 16.2 | –
2 | Halo-FtsZ (FtsZ fused with HaloTag) (natural protein) | – | 12.2
